Results reported in paper PMC10945830.

Target: Anthopleura YFP (AnthoYFP) from Neon Anthopleura sola (Anthopleura sola (endogenous in tentacles))
Experiment: SEC-MALS; isolated AnthoYFP pigment; self-association, tetramer; conditions of the SEC-MALS run not told in the main text

Anthopleura YFP (AnthoYFP) from Neon Anthopleura sola (natural protein)
stoichiometry N: 4
